The assay addresses Mac-1 (CD11b/CD18) integrin receptor on primary mouse microglia (mouse) (UniProt P05555). Description: cell-based or functional assay.

Sequence of Mac-1 (CD11b/CD18) integrin receptor on primary mouse microglia (mouse) (P05555 17-1153, chain 1 of 2): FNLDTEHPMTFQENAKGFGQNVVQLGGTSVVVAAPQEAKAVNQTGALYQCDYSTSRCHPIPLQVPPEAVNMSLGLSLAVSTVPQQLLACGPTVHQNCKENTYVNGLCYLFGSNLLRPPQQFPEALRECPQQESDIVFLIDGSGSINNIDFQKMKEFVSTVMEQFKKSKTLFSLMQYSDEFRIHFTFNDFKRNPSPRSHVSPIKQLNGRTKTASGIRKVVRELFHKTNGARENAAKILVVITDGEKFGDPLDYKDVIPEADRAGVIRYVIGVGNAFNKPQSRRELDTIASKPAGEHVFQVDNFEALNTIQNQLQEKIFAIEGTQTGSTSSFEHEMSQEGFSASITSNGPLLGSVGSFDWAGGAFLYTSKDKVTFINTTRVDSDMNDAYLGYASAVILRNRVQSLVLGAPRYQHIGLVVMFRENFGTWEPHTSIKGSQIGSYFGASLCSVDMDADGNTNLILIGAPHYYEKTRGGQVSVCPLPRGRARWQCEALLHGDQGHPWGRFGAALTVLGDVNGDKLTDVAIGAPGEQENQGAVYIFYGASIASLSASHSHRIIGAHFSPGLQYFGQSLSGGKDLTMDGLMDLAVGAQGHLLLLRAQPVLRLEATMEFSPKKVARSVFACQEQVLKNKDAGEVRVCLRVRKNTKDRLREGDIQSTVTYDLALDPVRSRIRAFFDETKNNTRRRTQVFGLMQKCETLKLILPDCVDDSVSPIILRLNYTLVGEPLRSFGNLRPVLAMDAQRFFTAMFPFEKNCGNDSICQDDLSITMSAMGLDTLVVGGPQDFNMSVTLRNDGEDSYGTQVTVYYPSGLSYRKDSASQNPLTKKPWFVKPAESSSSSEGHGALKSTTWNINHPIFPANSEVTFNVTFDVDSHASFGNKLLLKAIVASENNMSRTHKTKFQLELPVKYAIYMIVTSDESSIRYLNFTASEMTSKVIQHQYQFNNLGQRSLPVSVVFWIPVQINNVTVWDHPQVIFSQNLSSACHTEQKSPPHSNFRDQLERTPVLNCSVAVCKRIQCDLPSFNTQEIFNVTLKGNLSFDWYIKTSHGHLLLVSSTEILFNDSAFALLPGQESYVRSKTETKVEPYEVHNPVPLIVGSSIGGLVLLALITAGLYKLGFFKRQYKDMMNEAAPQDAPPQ
Sequence of Mac-1 (CD11b/CD18) integrin receptor on primary mouse microglia (mouse) (P11835 24-771, chain 2 of 2, further chain): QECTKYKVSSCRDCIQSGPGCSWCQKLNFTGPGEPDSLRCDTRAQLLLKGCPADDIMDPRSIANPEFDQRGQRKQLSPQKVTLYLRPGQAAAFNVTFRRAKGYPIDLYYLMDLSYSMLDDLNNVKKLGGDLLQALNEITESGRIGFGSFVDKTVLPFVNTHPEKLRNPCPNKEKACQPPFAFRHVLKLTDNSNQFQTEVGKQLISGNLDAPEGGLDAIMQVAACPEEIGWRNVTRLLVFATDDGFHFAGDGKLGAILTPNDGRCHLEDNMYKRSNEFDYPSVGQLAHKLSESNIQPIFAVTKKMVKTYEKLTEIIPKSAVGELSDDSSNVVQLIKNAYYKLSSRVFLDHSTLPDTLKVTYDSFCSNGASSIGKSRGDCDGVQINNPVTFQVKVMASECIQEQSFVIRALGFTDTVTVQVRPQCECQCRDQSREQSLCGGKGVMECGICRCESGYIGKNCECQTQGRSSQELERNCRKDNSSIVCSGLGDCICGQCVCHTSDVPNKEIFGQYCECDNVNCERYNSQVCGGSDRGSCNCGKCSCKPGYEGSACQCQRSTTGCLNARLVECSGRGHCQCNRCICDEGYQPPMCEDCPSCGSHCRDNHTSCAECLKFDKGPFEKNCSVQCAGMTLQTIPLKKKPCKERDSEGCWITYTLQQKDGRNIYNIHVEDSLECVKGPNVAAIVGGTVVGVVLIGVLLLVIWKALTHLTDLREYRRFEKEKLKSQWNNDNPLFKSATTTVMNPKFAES

As for “M1/70, rat anti-CD11b neutralizing antibody”, the activated microglia (cells larger than 2,000 um^2), fibrinogen in the presence of M1/70 (% of activated microglia) came to 18 and the phagocytosis of fibrinogen-treated microglia was 40 % reduction.

“fibrinogen (Calbiochem), immobilized on tissue culture dishes (ligand)” showed an Akt phosphorylation in microglia (Western blot) of 24 fold; an activated microglia (cells larger than 2,000 um^2), fibrinogen treated cells (% of activated microglia) of 71; an activated microglia, fibrinogen treatment (% of activated microglia) of 71; an active RhoA in microglia (GST-Rhotekin pull-down, Western blot) of 1.9 fold.
